Data on one substance can be found in patent US20070004619A1, “Relaxin superfamily peptide analogues” (Howard Florey Institute of Experimental Physiology and …, priority 2003, published 2007).

Positions of bridges follow the written chain, without caps; N, C: chain ends. No end group written: not given here.

Series [1] in a line: Circular dichroism (CD) spectroscopy. It counts as physicochemical. Conditions: FIG. 5; in water and phosphate buffered saline. The method, then: Circular Dichroism (CD) Spectroscopy:
CD spectra were taken on a Jasco J-720 instrument at room temperature in a 1 mm path-length cell, Doubly distilled water, 10 mM sodium phosphate buffer containing 120 mM NaCl pH 7.4, and spectroscopy grade trifluoroethanol (TFE) were used as solvents. The peptide concentrations were made to 1 μM, determined by quantitative RP-HPLC and amino acid analysis (ref). Curves were smoothed by the algorithm provided by Jasco, Mean residue ellipticity ([θ]MR) is expressed in degrees×cm2/dmole by using the molecular mass. CD spectra evaluations were based on comparison with known peptide conformations (Otvos, L., Jr. 1996. from Neuropeptide protocols. Irvine, G. & Williams, C., Eds. pp 153-161. Humana Press, Totowa, N.J.).
Background: Circular dichroism is widely used to follow secondary structure.

Another series deals with T1, human LGR8 (Homo sapiens, UniProt Q8WXD0).
T1 construct: expressed in transfected cells; host or cells: human 293T cells, stably transfected
T1 sequence (Q8WXD0 whole entry): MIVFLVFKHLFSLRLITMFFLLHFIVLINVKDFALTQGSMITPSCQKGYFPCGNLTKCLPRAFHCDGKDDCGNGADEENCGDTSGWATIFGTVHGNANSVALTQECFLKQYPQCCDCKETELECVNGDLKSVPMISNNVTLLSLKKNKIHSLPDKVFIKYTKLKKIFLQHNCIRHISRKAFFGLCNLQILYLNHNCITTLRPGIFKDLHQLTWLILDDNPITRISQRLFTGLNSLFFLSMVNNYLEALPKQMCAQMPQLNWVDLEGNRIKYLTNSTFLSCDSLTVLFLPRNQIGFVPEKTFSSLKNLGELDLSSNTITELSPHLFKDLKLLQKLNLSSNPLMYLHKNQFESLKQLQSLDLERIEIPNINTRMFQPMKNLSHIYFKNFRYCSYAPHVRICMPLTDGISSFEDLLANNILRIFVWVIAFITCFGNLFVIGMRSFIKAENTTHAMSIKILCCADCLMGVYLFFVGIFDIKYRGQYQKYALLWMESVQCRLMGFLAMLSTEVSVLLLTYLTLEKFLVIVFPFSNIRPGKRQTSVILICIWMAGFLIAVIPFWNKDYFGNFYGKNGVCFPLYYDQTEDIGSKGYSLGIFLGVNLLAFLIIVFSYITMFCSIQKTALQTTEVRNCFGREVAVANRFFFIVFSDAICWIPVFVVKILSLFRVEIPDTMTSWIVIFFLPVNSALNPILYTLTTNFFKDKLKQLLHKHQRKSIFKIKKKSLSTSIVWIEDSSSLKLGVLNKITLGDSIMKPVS
As to the kind of experiment: Functional cAMP assay: inhibition of the INSL3 response at the native INSL3 receptor (LGR8). It counts as cell-based. Conditions: FIG. 4; human 293T cells stably transfected with human LGR8; cAMP ELISA. The method, then: Human 293T cells stably transfected with human LGR7, or LGR8 were preincubated in the presence of 0.25 mM 3-isobutyl-1-methyl xanthine (IBMX, Sigma) before various treatments for 30 minutes. At the end of the incubation cells were lysed for measurement of cAMP using a well-characterized cAMP ELISA (Satoko et al., J Biol Chem, 278:7855-7862). All experiments were repeated at least three times using cells from independent transfections, Results are plotted as pmol cAMP/10^4 cells.
Background: Cyclic AMP is a second messenger, typically raised through Gs and lowered through Gi signalling.

On to “cINSLa: cyclic INSL3 B-chain mimetic; Glu4 and Arg26 replaced with cysteine and a disulphide bond formed (PTPCMREKLCGHHFVRALVRVCGGPCWSTEA; disulfide 4-26; cysteine pairing not given here)”, for which, in series [1], the “alpha-helical content from CD spectra” value is on record as “significant alpha-helical content”. The “inhibition of the response of INSL3 (measured by cAMP response) to the native INSL3 receptor (LGR8)” value with human LGR8 was “antagonistic activity”.
